B2: murine signal regulatory protein α (SIRPα) on macrophages (receptor, mouse, UniProt P97797 32-513, looked up)
chain: KELKVTQPEKSVSVAAGDSTVLNCTLTSLLPVGPIRWYRGVGPSRLLIYSFAGEYVPRIRNVSDTTKRNNMDFSIRISNVTPADAGIYYCVKFQKGSSEPDTEIQSGGGTEVYVLAKPSPPEVSGPADRGIPDQKVNFTCKSHGFSPRNITLKWFKDGQELHPLETTVNPSGKNVSYNISSTVRVVLNSMDVNSKVICEVAHITLDRSPLRGIANLSNFIRVSPTVKVTQQSPTSMNQVNLTCRAERFYPEDLQLIWLENGNVSRNDTPKNLTKNTDGTYNYTSLFLVNSSAHREDVVFTCQVKHDQQPAITRNHTVLGFAHSSDQGSMQTFPDNNATHNWNVFIGVGVACALLVVLLMAALYLLRIKQKKAKGSTSSTRLHEPEKNAREITQVQSLIQDTNDINDITYADLNLPKEKKPAPRAPEPNNHTEYASIETGKVPRPEDTLTYADLDMVHLSRAQPAPKPEPSFSEYASVQVQRK
notes: whole, on cells; Endogenous protein of WT mouse macrophages; In the co-immunoprecipitations it is tyrosine-phosphorylated in its cytoplasmic ITIMs (SIRPα pY); also called murine SIRPα; surface signal regulatory protein α

In assay [1] the target is B2. The experiment in a line: note on the reagent used to ligate SIRPα on WT macrophages (FIG. 10).
In assay [2] the target is T1, SHP-1 (SH2-containing tyrosine phosphatase) of mouse macrophages (mouse, UniProt P29351 1-595, limits assumed).
T1 construct: Detected by Western blot in SIRPα immunoprecipitates
The experiment in a line: SIRPα immunoprecipitation from LPS- or IL-17-treated WT PEM lysates, WB for SHP-1. On the procedure:
FIGS. 4A-4E include data related to our experiments on macrophage phagocytic plasticity. FIG. 4A is a panel of illustrative line graphs showing that IL-10 inhibits macrophage phagocytosis toward “self.” PEMs were treated with LPS and activating cytokines along with various concentrations of IL-10 before testing their ability to phagocytose RBCs. FIG. 4B illustrates the phagocytic plasticity of WT red pulp macrophages. […] Treatments of cultured macrophages with LPS and IL-17 re-elicited their phagocytosis toward RBCs. […] Error bars are ±SEM. ***P<0.001 vs. freshly isolated splenic macrophages. FIG. 4D includes microscopic images of RBC phagocytosis by LPS- and IL-17-treated splenic macrophages. […] WT PEMs treated with LPS or IL-17 were further treated with Cd47⁺ RBCs or Cd47-AP (10 min, 37° C.) followed by cell lysis, SIRPα immunoprecipitation, and WB detection of SIRPα phosphorylation (SIRPα^pY) and SHP-1 association. Data presented in each panel represent at least three independent experiments with n≥4, if applicable.

T1 sequence (P29351 whole entry): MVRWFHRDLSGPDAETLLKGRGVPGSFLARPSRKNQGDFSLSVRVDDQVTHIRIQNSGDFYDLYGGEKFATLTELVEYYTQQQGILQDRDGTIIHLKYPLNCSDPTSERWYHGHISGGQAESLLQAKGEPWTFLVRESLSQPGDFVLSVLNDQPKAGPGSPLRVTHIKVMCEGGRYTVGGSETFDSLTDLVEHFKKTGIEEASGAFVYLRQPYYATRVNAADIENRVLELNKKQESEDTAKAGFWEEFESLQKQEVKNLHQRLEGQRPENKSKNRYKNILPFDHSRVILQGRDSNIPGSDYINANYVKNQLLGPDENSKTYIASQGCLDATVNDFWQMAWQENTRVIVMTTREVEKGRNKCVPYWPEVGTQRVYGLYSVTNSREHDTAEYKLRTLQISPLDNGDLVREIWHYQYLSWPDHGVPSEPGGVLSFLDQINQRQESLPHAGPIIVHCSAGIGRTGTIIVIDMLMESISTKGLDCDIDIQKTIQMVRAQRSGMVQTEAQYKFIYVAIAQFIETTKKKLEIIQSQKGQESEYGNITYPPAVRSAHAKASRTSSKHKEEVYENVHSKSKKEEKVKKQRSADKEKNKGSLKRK

B1: mCD47-AP, soluble murine CD47 extracellular domain fusion protein (other, mouse, UniProt Q61735 19-140, looked up, not shown: large carriers)
chain: QLLFSNVNSIEFTSCNETVVIPCIVRNVEAQSTEEMFVKWKLNKSYIFIYDGNKNSTTTDQNFTSAKISVSDLINGIASLKMDKRDAMVGNYTCEVTELSREGKTVIELKNRTVSWFSPNEK
notes: extracellular domain
With B1, the binding result in assay [1] is given as “binds”.

As for B2, in assay [2], the binding result is given as “binds”.
